Substrate: N=C(N)NCCC[C@H](N)C(=O)O
Test: Arginase-catalysed hydrolysis of L-Arg to L-Orn, initial rates in batch, with and without inhibitors
Assay type: biochemical, calf
Settings: other: nonlinear regression of initial rate data with L-Arg; 25.0 °C
Method: In further experiments, the materials used were: Calf liver arginase (activity 110 U/mg) which was obtained from Boehringer Mannheim (Mannheim, F.R.G.). Amino acids were from Rexim (Ham, France). MnSO4, MnO2, and ascorbic acid were from E. Merck (Darmstadt, F.R.G.).
Batch conditions used were: Starting pH value, except for the activity-pH curve, was either 11.5, the natural value for L-Arg in water, or 9.5, adjusted from pH 11.5 with conc. HCl. The temperature was 25° C. unless otherwise noted. Typical concentrations of L-Arg were 0.75M. Unless otherwise mentioned, [Mn2^+ ]=5-10^-4 M. Reaction progress was followed by HPLC (amino column, mobile phase: phosphate buffer (pH 6.4)/acetonitrile).
Kinetic data was obtained as follows: Initial rate data were analyzed by a non-linear regression method (Marquardt routine) with the program OPTI (U. Giesecke, KFA J ulich).
A linear slope of 1/[S] vs. [I] plot distinguishes a purely competitive inhibition mechanism from a partially competitive one. Simultaneously, the apparent and the intrinsic KM -value are proportional to [I] according to equation (5) from which the inhibition constant KI can be calculated
Since the runs have been conducted at [LArg]=50 mM=2·Km,intr,Vo =Vmax ·2·KM,intr /(KM,intr (3+[I]/KI))=Vmax ·2/(3+[I]/KI). At [I]=KI, Vo =Vmax 2/(3+1)=Vmax /2. So, KI can be calcuated with sufficient accuracy from a Vo vs. [I] plot such as FIG. 4.

B1: Calf liver arginase (Bos taurus) (protein)
chain: MSSKPQSIGVIGAPFSKGQPRGGVEEGPTVLRKAGLLEKLKELECDVKDYGDLSFADNLDDSPFQIVKNPRCVGKASEKLADVVAEVKKTGRISLVLGGDHSLAIGSISGHARVHPDLCVIWVDAHTDINTPLTTKTGNLHGQPVSFLLKELKEKMPEVPGFYWVAPCISAKDIVYIGLRDVDPGEHYILKTLGIKYFSMTEVDKLGIGKVMEETFSYLLGRKKRPIHLSFDVDGLDPSFTPATGTPVQGGLTYREGLYITEEIYKTGLLSGLDIMEVNPSLGKTPEEVTRTVNTTVAITMACFGVAREGNHKPIDYLSPPK
notes: purchased Boehringer Mannheim (Mannheim, F.R.G.)
Km: 25.5 mM | kcat: 1200 s⁻¹

Source: patent publication US5591613A, “Method for the preparation of D-arginine and L-ornithine” (Degussa Aktiengesellschaft, priority 1990, dated 1997)
